# Source: PMC7478360
# Legend:
# thrombin [1] = molecular target: T1, thrombin (human (plasma), UniProt P00734;P00734 328-363;364-622); test: graphene FET, Dirac voltage shift
# thrombin [2] = molecular target: T1, thrombin; test: graphene FET, real-time drain current
# thrombin [3] = molecular target: T1, thrombin; test: graphene FET, Dirac voltage shift; remark: listed apart in the source
Binder,Kd (thrombin [1]),Kd (thrombin [2]),binding result (thrombin [3])
"CCATCTCCACTTGGTTGGTGTGGTTGG (structured_DNA, 5' NH2-(CH2)6, amide-coupled to PBASE on graphene) [anti-thrombin DNA aptamer]",0.376 nM,0.732 nM,
"ATCAGGGCTAAAGAGTGCAGAGTTACTTAG (ssDNA, 5' NH2-(CH2)6, amide-coupled to PBASE on graphene) [anti-lysozyme DNA aptamer]",,,no binding
